According to article PMC9133112, “The structural basis of Cdc7-Dbf4 kinase dependent targeting and phosphorylation of the MCM2-7 double hexamer” (Nature Communications, 2022):

T1: Mcm4 (Saccharomyces cerevisiae, UniProt P30665 1-933)
T1 construct: Mcm4, Saccharomyces cerevisiae, full length; Subunit of m2, written alone for the contacts seen in the cryo-EM structures
T1 sequence (looked up): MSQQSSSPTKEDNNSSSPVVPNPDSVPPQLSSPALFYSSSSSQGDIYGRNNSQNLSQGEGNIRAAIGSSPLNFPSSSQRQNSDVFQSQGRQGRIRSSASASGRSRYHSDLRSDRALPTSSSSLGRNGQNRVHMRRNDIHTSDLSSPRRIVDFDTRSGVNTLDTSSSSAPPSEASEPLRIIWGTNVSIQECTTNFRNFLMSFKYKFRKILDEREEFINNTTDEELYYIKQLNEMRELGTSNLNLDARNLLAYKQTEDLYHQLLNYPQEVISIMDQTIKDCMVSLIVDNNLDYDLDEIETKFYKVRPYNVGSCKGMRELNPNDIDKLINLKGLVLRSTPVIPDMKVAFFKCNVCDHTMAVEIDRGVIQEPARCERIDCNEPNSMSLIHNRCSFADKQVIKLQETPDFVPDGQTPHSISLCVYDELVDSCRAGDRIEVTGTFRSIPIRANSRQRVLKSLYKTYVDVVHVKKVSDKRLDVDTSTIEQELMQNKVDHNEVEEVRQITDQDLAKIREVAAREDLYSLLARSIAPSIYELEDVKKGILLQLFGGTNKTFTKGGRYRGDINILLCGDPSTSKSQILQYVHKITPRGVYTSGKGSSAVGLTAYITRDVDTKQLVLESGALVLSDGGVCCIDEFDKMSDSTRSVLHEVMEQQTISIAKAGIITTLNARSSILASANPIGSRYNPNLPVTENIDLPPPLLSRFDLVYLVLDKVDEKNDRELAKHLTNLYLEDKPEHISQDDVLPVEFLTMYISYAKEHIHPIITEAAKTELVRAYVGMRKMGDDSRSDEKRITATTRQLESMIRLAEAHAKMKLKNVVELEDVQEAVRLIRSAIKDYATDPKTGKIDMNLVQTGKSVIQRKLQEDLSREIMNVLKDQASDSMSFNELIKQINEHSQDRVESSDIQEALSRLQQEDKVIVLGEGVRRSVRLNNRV

T2: Mcm2 (Saccharomyces cerevisiae, UniProt P29469 1-868)
T2 construct: Mcm2, Saccharomyces cerevisiae, full length; Subunit of m2, written alone for the contacts seen in the cryo-EM structures
T2 sequence (looked up): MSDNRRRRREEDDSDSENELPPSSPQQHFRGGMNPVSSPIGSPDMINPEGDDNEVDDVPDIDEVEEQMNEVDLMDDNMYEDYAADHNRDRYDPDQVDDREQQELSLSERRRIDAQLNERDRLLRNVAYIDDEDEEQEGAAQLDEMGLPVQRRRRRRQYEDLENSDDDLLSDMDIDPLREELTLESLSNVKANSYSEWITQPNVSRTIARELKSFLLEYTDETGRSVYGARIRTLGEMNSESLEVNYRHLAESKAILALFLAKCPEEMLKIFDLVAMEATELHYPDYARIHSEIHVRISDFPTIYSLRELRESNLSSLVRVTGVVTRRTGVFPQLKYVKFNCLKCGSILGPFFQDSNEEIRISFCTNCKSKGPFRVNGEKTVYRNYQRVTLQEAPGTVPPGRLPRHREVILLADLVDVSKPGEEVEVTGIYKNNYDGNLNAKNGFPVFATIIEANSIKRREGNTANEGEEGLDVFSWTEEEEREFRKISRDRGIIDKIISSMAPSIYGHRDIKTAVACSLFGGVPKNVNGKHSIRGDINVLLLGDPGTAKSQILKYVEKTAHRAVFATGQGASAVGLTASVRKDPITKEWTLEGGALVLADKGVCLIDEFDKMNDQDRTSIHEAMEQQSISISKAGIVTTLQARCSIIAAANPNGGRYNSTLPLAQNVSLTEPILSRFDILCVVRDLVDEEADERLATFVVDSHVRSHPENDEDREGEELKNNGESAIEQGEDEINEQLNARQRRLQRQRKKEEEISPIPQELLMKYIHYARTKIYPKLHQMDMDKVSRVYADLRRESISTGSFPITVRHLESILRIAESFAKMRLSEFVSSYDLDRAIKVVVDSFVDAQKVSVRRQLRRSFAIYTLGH

T3: Mcm7 (Saccharomyces cerevisiae, UniProt P38132 1-845)
T3 construct: Mcm7, Saccharomyces cerevisiae, full length; Subunit of m2, written alone for the contacts seen in the cryo-EM structures
T3 sequence (looked up): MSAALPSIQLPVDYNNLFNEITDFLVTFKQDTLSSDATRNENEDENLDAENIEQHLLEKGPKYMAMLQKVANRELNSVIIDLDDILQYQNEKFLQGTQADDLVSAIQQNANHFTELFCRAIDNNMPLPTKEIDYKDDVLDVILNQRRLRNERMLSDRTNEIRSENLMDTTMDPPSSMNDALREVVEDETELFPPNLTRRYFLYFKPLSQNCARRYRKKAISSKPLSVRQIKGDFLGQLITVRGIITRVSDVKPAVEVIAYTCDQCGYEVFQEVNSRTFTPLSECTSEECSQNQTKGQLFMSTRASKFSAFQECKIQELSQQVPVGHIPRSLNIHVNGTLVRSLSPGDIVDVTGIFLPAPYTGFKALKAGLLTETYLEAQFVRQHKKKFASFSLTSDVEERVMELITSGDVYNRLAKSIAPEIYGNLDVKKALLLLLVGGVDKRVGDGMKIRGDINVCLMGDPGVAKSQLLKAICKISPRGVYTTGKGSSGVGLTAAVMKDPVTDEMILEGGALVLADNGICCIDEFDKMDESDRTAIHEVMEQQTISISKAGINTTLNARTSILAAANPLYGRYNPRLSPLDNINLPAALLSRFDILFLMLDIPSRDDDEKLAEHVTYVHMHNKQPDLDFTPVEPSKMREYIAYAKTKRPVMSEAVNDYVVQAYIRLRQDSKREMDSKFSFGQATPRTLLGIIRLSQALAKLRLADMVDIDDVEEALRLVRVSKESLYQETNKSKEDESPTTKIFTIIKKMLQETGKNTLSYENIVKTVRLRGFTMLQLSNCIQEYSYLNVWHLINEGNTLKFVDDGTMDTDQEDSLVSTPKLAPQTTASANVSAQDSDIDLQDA

B1: Cdc7 (enzyme, Saccharomyces cerevisiae, UniProt P06243 1-507, looked up)
chain: MTSKTKNIDDIPPEIKEEMIQLYHDLPGIENEYKLIDKIGEGTFSSVYKAKDITGKITKKFASHFWNYGSNYVALKKIYVTSSPQRIYNELNLLYIMTGSSRVAPLCDAKRVRDQVIAVLPYYPHEEFRTFYRDLPIKGIKKYIWELLRALKFVHSKGIIHRDIKPTNFLFNLELGRGVLVDFGLAEAQMDYKSMISSQNDYDNYANTNHDGGYSMRNHEQFCPCIMRNQYSPNSHNQTPPMVTIQNGKVVHLNNVNGVDLTKGYPKNETRRIKRANRAGTRGFRAPEVLMKCGAQSTKIDIWSVGVILLSLLGRRFPMFQSLDDADSLLELCTIFGWKELRKCAALHGLGFEASGLIWDKPNGYSNGLKEFVYDLLNKECTIGTFPEYSVAFETFGFLQQELHDRMSIEPQLPDPKTNMDAVDAYELKKYQEEIWSDHYWCFQVLEQCFEMDPQKRSSAEDLLKTPFFNELNENTYLLDGESTDEDDVVSSSEADLLDKDVLLISE
notes: Cdc7 serine/threonine kinase, Saccharomyces cerevisiae, full length (87% resolved in the map); Subunit of m1, written alone for the contacts seen in the cryo-EM structures; also called Cdc7 kinase; Cdc7 serine/threonine kinase; source: budding yeast cells, purified as subunit of DDK
B2: Dbf4 (natural protein, Saccharomyces cerevisiae, UniProt P32325 1-704, looked up)
chain: MVSPTKMIIRSPLKETDTNLKHNNGIAASTTAAGHLNVFSNDNNCNNNNTTESFPKKRSLERLELQQQQHLHEKKRARIERARSIEGAVQVSKGTGLKNVEPRVTPKELLEWQTNWKKIMKRDSRIYFDITDDVEMNTYNKSKMDKRRDLLKRGFLTLGAQITQFFDTTVTIVITRRSVENIYLLKDTDILSRAKKNYMKVWSYEKAARFLKNLDVDLDHLSKTKSASLAAPTLSNLLHNEKLYGPTDRDPRTKRDDIHYFKYPHVYLYDLWQTWAPIITLEWKPQELTNLDELPYPILKIGSFGRCPFIGDRNYDESSYKRVVKRYSRDKANKKYALQLRALFQYHADTLLNTSSVNDQTKNLIFIPHTCNDSTKSFKKWMQEKAKNFEKTELKKTDDSAVQDVRNEHADQTDEKNSILLNETETKEPPLKEEKENKQSIAEESNKYPQRKELAATPKLNHPVLATFARQETEEVPDDLCTLKTKSRQAFEIKASGAHQSNDVATSFGNGLGPTRASVMSKNMKSLSRLMVDRKLGVKQTNGNNKNYTATIATTAETSKENRHRLDFNALKKDEAPSKETGKDSAVHLETNRKPQNFPKVATKSVSADSKVHNDIKITTTESPTASKKSTSTNVTLHFNAQTAQTAQPVKKETVKNSGYCENCRVKYESLEQHIVSEKHLSFAENDLNFEAIDSLIENLRFQI
notes: Dbf4, Saccharomyces cerevisiae, full length (41% resolved in the map); Subunit of m1, written alone for the contacts seen in the cryo-EM structures; also called dumbbell former 4; source: budding yeast cells, purified as subunit of DDK

Legend:
Test in all cases: cryo-EM structure; MD-(ATPγS): 250 nM DH released from beads by AluI + 750 nM DDK, 10 min 24 °C, buffer C with 3 mM ATPγS; GraFix glycerol gradient with glutaraldehyde; states I-III
Details in all cases: both partners purified
Dbf4 = target: B2
Mcm4 = target: T1, Mcm4
Mcm2 = target: T2, Mcm2
Mcm7 = target: T3, Mcm7
Mcm6 = target: T4, Mcm6 (Saccharomyces cerevisiae, UniProt P53091 1-1017)
T4 construct: Mcm6, Saccharomyces cerevisiae, full length; Subunit of m2, written alone for the contacts seen in the cryo-EM structures
T4 sequence (P53091 whole entry): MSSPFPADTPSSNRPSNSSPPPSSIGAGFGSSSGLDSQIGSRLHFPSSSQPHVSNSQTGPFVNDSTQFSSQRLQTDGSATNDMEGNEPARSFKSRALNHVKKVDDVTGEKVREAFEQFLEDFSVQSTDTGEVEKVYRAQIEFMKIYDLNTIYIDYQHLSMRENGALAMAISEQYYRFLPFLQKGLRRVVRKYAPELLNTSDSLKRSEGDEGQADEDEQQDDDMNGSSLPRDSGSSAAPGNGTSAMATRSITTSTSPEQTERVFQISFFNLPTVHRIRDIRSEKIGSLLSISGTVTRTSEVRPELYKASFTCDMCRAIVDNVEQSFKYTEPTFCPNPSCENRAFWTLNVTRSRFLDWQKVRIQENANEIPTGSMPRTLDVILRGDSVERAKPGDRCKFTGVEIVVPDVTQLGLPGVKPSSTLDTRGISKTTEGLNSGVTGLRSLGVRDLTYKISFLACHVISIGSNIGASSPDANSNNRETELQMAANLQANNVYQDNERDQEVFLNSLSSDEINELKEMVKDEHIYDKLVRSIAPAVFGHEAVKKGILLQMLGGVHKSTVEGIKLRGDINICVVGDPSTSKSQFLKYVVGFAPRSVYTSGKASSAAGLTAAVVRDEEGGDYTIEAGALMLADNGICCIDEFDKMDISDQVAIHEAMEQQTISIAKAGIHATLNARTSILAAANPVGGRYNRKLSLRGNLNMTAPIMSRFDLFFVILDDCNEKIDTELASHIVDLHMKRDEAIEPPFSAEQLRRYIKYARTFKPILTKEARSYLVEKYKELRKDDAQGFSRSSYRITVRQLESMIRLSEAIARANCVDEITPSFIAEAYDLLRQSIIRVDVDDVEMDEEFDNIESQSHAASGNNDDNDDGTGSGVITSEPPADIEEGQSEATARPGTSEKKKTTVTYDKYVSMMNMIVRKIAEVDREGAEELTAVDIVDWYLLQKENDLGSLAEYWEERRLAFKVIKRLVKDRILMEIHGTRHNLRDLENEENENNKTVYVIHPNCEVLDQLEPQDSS

| binding result (Dbf4) | binding result (Mcm4) | binding result (Mcm2) | binding result (Mcm7) | binding result (Mcm6) | Binder |
| --- | --- | --- | --- | --- | --- |
| binds | binds | – | – | – | B1 |
| – | binds | binds | binds | binds | B2 |
